Legend:
Test in all cases: pull-down binding Z-score (relative to library population); higher = stronger binding
[1] = test system: TO-N3 (biotin conjugate); details: RNA library: Library-2
Procedure, shortened: (§1)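 Biotin-conjugated small molecule (100 pmol) on streptavidin beads was incubated with 1 μg of heat-folded Cy5- or Cy3-end-labelled RNA library in phosphate/NaCl/KCl buffer at 25 °C for 60 min. Following three washes, RNA was eluted with hot SDS and hybridised at 55.5 °C for 20 h to a DNA barcode microarray. The binding value is a Z-score computed from the library mean and standard deviation, after subtraction of beads without compound and averaging of barcoded replicate probes with the highest and lowest excluded.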

[2] = test system: G-clamp-N3 (biotin conjugate); details: RNA library: Library-1 (pre-miRNA loops + repeats)
Procedure, shortened: as §1

[3] = test system: TO-3-N3 (biotin conjugate); details: RNA library: Library-2
Procedure, shortened: as §1

[4] = test system: TO-N3-2 (biotin conjugate); details: RNA library: Library-2
Procedure, shortened: as §1

[5] = test system: TO-3-N3-2 (biotin conjugate); details: RNA library: Library-2
Procedure, shortened: as §1

## UCCACCUAGACGGGCCUGGGUCAA [hsa-mir-4698]
[1]
  pull-down binding Z-score: 0.552
[2]
  pull-down binding Z-score: -0.781
[3]
  pull-down binding Z-score: 0.349
[4]
  pull-down binding Z-score: 0.907
[5]
  pull-down binding Z-score: -0.0391

## UCCAGACGGAGAUGCGA [hsa-mir-611]
[1]
  pull-down binding Z-score: 0.192
[2]
  pull-down binding Z-score: -1.18
[3]
  pull-down binding Z-score: -0.353
[4]
  pull-down binding Z-score: 0.858
[5]
  pull-down binding Z-score: -0.000716

## UCCAGAGGCAUCCCUAACCCAGAAUCUUUUGACUGUCCUCUGGA [hsa-mir-4306]
[1]
  pull-down binding Z-score: -0.253
[2]
  pull-down binding Z-score: -0.668
[3]
  pull-down binding Z-score: -0.198
[4]
  pull-down binding Z-score: -0.281
[5]
  pull-down binding Z-score: -0.358

## UCCAGCUGUGUGAUAUUCUGCUG [hsa-mir-19b-1]
[1]
  pull-down binding Z-score: 0.909
[2]
  pull-down binding Z-score: -0.727
[3]
  pull-down binding Z-score: 0.907
[4]
  pull-down binding Z-score: 0.384
[5]
  pull-down binding Z-score: 0.159

## UCCAGGAUCUGGGUUUUGAGGUCUUGG [hsa-mir-4309]
[1]
  pull-down binding Z-score: 0.673
[2]
  pull-down binding Z-score: 0.525
[3]
  pull-down binding Z-score: 0.835
[4]
  pull-down binding Z-score: 0.345
[5]
  pull-down binding Z-score: 0.267

## UCCAGGCAUCUGUGUCUG [hsa-mir-4669]
[1]
  pull-down binding Z-score: 1.52
[2]
  pull-down binding Z-score: -0.0379
[3]
  pull-down binding Z-score: 1.48
[4]
  pull-down binding Z-score: 0.591
[5]
  pull-down binding Z-score: 0.402

## UCCAGGGCUCCUGACACCUGGA [hsa-mir-6861]
[1]
  pull-down binding Z-score: -0.785
[2]
  pull-down binding Z-score: -0.943
[3]
  pull-down binding Z-score: -0.649
[4]
  pull-down binding Z-score: -0.248
[5]
  pull-down binding Z-score: -0.533

## UCCAGUGUGGCUCGGAGGCUGGA [hsa-mir-139]
[1]
  pull-down binding Z-score: 1.23
[2]
  pull-down binding Z-score: 3.31
[3]
  pull-down binding Z-score: 0.91
[4]
  pull-down binding Z-score: 1.18
[5]
  pull-down binding Z-score: 0.381

## UCCAUGAAAAGAACCCAUGGG [hsa-mir-4471]
[1]
  pull-down binding Z-score: -0.608
[2]
  pull-down binding Z-score: -0.734
[3]
  pull-down binding Z-score: -0.455
[4]
  pull-down binding Z-score: -0.307
[5]
  pull-down binding Z-score: 0.0519

## UCCCAGCCACUCUGGAGG [hsa-mir-4419b]
[1]
  pull-down binding Z-score: 0.44
[2]
  pull-down binding Z-score: 0.653
[3]
  pull-down binding Z-score: 0.274
[4]
  pull-down binding Z-score: 0.631
[5]
  pull-down binding Z-score: -0.194

## UCCCAGGAAAUUCACUUUAGGAAGUCCUAGGA [hsa-mir-5571]
[1]
  pull-down binding Z-score: -1.1
[2]
  pull-down binding Z-score: 0.804
[3]
  pull-down binding Z-score: -0.734
[4]
  pull-down binding Z-score: -1.41
[5]
  pull-down binding Z-score: -0.303

## UCCCAGGCCCUUCCUCCAAUACUGGGA [hsa-mir-4666b]
[1]
  pull-down binding Z-score: -0.383
[2]
  pull-down binding Z-score: -0.809
[3]
  pull-down binding Z-score: -0.252
[4]
  pull-down binding Z-score: -0.446
[5]
  pull-down binding Z-score: -0.0987

## UCCCAUUUCCACAUGGAGAGUGGAGCCCAGA [hsa-mir-3123]
[1]
  pull-down binding Z-score: 0.639
[2]
  pull-down binding Z-score: 1.02
[3]
  pull-down binding Z-score: 0.384
[4]
  pull-down binding Z-score: 0.671
[5]
  pull-down binding Z-score: 0.0927

## UCCCCAGAAGCUGAGGAUUAGGGGA [hsa-mir-6503]
[1]
  pull-down binding Z-score: -0.0188
[2]
  pull-down binding Z-score: 1.93
[3]
  pull-down binding Z-score: 0.0937
[4]
  pull-down binding Z-score: -0.108
[5]
  pull-down binding Z-score: -0.131

## UCCCCUAGCGCGCCUUCUGGAGA [hsa-mir-3188]
[1]
  pull-down binding Z-score: -0.0603
[2]
  pull-down binding Z-score: 1.12
[3]
  pull-down binding Z-score: -0.271
[4]
  pull-down binding Z-score: 0.507
[5]
  pull-down binding Z-score: -0.0116

## UCCCCUCAGGA [hsa-mir-5703]
[1]
  pull-down binding Z-score: -0.256
[2]
  pull-down binding Z-score: 0.99
[3]
  pull-down binding Z-score: 0.0295
[4]
  pull-down binding Z-score: -0.802
[5]
  pull-down binding Z-score: -0.595

## UCCCUUCCUGGACACACAGGAGGAGA [hsa-mir-5680]
[1]
  pull-down binding Z-score: -0.874
[2]
  pull-down binding Z-score: -1.27
[3]
  pull-down binding Z-score: -0.738
[4]
  pull-down binding Z-score: -0.56
[5]
  pull-down binding Z-score: -0.8

## UCCGGCCGGCCAUGCUGGCGGGG [hsa-mir-762]
[1]
  pull-down binding Z-score: -0.676
[2]
  pull-down binding Z-score: 0.45
[3]
  pull-down binding Z-score: -0.72
[4]
  pull-down binding Z-score: 0.213
[5]
  pull-down binding Z-score: -0.506

## UCCUAGGCGGGUCGCUGCGGUACCUCCCUCCUGUCUGUGGCGGUGGGAUCCCGUGGCCGUGUUUUCCUGGUG [hsa-mir-663b]
[1]
  pull-down binding Z-score: 0.683
[2]
  pull-down binding Z-score: -0.826
[3]
  pull-down binding Z-score: -0.114
[4]
  pull-down binding Z-score: 1.55
[5]
  pull-down binding Z-score: -0.0831

## UCCUCAGACCAGGUGGCUCCCGAGCCACCCCAGGCUGUAGG [hsa-mir-2392]
[1]
  pull-down binding Z-score: 0.743
[2]
  pull-down binding Z-score: -1.09
[3]
  pull-down binding Z-score: -0.0269
[4]
  pull-down binding Z-score: 1.75
[5]
  pull-down binding Z-score: -0.183

## UCCUCCACAAAUGCGUGUGGAGGA [hsa-mir-4633]
[1]
  pull-down binding Z-score: -1.34
[2]
  pull-down binding Z-score: 0.135
[3]
  pull-down binding Z-score: -0.89
[4]
  pull-down binding Z-score: -1.6
[5]
  pull-down binding Z-score: -0.698

## UCCUCCAUGCUUGGAAAAUGCAGGGAGGA [hsa-mir-764]
[1]
  pull-down binding Z-score: -0.987
[2]
  pull-down binding Z-score: 0.669
[3]
  pull-down binding Z-score: -0.857
[4]
  pull-down binding Z-score: -1.01
[5]
  pull-down binding Z-score: -0.61

## UCCUCUCCUGGUCUGGGAGGAUAGAAGAGAGGA [hsa-mir-5191]
[1]
  pull-down binding Z-score: 0.823
[2]
  pull-down binding Z-score: 1.96
[3]
  pull-down binding Z-score: -0.205
[4]
  pull-down binding Z-score: 3.13
[5]
  pull-down binding Z-score: -0.219

## UCCUGAGACAGGA [hsa-mir-4261]
[1]
  pull-down binding Z-score: -0.807
[2]
  pull-down binding Z-score: -0.47
[3]
  pull-down binding Z-score: -0.563
[4]
  pull-down binding Z-score: -1.02
[5]
  pull-down binding Z-score: -0.5

## UCCUGAGCUAGGAGGAUUAGGA [hsa-mir-5093]
[1]
  pull-down binding Z-score: -0.07
[2]
  pull-down binding Z-score: 1.05
[3]
  pull-down binding Z-score: -0.171
[4]
  pull-down binding Z-score: 0.417
[5]
  pull-down binding Z-score: -0.0611

## UCCUGAUCUGAUGGAAGUCAUGA [hsa-mir-7843]
[1]
  pull-down binding Z-score: -0.0481
[2]
  pull-down binding Z-score: -0.244
[3]
  pull-down binding Z-score: -0.312
[4]
  pull-down binding Z-score: 0.409
[5]
  pull-down binding Z-score: -0.16

## UCCUGAUGGUCCCCUCCCCAGGG [hsa-mir-185]
[1]
  pull-down binding Z-score: 0.275
[2]
  pull-down binding Z-score: -1.02
[3]
  pull-down binding Z-score: 0.122
[4]
  pull-down binding Z-score: 0.784
[5]
  pull-down binding Z-score: -0.187

## UCCUGGGAAGCAUGGUAGCCAGGA [hsa-mir-5192]
[1]
  pull-down binding Z-score: 0.319
[2]
  pull-down binding Z-score: 2.06
[3]
  pull-down binding Z-score: 0.314
[4]
  pull-down binding Z-score: 0.994
[5]
  pull-down binding Z-score: 0.431

## UCCUGUAGUGUCUUAUAUACAAUACAGUAGGA [hsa-mir-613]
[1]
  pull-down binding Z-score: -0.743
[2]
  pull-down binding Z-score: -0.0831
[3]
  pull-down binding Z-score: -0.741
[4]
  pull-down binding Z-score: -0.539
[5]
  pull-down binding Z-score: -0.802

## UCCUUUUCUCUACCUUGUAGAGAAGCA [hsa-mir-3609]
[1]
  pull-down binding Z-score: 0.281
[2]
  pull-down binding Z-score: -0.207
[3]
  pull-down binding Z-score: 0.0918
[4]
  pull-down binding Z-score: -0.258
[5]
  pull-down binding Z-score: -0.379

## UCGAGAGGUCAGAGGAUUGCUCCUGA [hsa-mir-5585]
[1]
  pull-down binding Z-score: 0.496
[2]
  pull-down binding Z-score: 3.56
[3]
  pull-down binding Z-score: 0.00526
[4]
  pull-down binding Z-score: 1.67
[5]
  pull-down binding Z-score: -0.227

## UCGCCUAGGGCUCUGAGCAGGGCA [hsa-mir-211]
[1]
  pull-down binding Z-score: 1.72
[2]
  pull-down binding Z-score: 1.4
[3]
  pull-down binding Z-score: 1.36
[4]
  pull-down binding Z-score: 1.47
[5]
  pull-down binding Z-score: 0.463

## UCGGCACUAUUGUGACUGU [hsa-mir-7855]
[1]
  pull-down binding Z-score: 0.611
[2]
  pull-down binding Z-score: -0.0938
[3]
  pull-down binding Z-score: 0.693
[4]
  pull-down binding Z-score: 0.0889
[5]
  pull-down binding Z-score: -0.16

## UCGUCAGUGUUUGA [hsa-mir-8073]
[1]
  pull-down binding Z-score: -0.468
[2]
  pull-down binding Z-score: -0.342
[3]
  pull-down binding Z-score: -0.443
[4]
  pull-down binding Z-score: -0.296
[5]
  pull-down binding Z-score: -0.295

## UCUAUCUGUAUUCUUACUGAAGGGA [hsa-mir-504]
[1]
  pull-down binding Z-score: -0.937
[2]
  pull-down binding Z-score: 0.763
[3]
  pull-down binding Z-score: -0.739
[4]
  pull-down binding Z-score: -0.728
[5]
  pull-down binding Z-score: -0.42

## UCUCAAAAUAAUUCUGCAGUGAGA [hsa-mir-4524b]
[1]
  pull-down binding Z-score: -1.13
[2]
  pull-down binding Z-score: 2.26
[3]
  pull-down binding Z-score: -0.872
[4]
  pull-down binding Z-score: -0.868
[5]
  pull-down binding Z-score: 0.0866

## UCUCAAUCCAUUCAUAUUGAAA [hsa-mir-3662]
[1]
  pull-down binding Z-score: 0.226
[2]
  pull-down binding Z-score: -1.04
[3]
  pull-down binding Z-score: 0.563
[4]
  pull-down binding Z-score: -0.68
[5]
  pull-down binding Z-score: -0.33

## UCUGCAGGUUCGCACUGAUGCCUGCUCG [hsa-mir-6726]
[1]
  pull-down binding Z-score: 0.309
[2]
  pull-down binding Z-score: 0.44
[3]
  pull-down binding Z-score: 0.0628
[4]
  pull-down binding Z-score: 0.569
[5]
  pull-down binding Z-score: -0.102
